According to patent publication US20240360474 (Scribe Therapeutics Inc., published 2024):
Changes are numbered by the printed parent chain.

Legend:
CasX variant 438 = target: T1, CasX variant 438 (synthetic construct); experiment: cleavage_in_vitro
T1 chain: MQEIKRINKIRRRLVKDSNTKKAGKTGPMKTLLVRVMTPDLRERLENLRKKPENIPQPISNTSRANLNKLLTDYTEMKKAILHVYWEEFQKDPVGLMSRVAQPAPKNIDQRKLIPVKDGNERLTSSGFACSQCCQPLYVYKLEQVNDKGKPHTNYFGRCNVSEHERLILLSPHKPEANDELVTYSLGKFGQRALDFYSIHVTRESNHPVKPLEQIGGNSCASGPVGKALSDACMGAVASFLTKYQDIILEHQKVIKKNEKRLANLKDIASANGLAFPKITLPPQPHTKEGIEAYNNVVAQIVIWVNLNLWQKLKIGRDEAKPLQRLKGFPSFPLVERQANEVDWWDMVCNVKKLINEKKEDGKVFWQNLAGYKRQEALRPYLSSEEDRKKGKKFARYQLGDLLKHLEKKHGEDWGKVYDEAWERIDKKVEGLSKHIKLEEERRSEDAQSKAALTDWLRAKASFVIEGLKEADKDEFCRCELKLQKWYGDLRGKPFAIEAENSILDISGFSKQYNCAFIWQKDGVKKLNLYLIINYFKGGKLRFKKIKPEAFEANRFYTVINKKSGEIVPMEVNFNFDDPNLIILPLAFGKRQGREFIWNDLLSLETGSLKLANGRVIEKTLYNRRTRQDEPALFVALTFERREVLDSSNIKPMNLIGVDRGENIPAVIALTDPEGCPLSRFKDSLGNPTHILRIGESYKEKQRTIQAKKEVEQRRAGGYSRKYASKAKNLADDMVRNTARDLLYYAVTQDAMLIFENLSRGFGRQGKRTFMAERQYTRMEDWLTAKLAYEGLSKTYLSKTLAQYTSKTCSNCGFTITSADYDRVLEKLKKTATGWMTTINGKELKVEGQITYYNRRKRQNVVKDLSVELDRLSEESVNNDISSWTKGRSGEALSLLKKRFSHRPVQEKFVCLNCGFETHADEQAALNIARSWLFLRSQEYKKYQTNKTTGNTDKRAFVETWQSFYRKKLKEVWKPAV

CasX variant 119 = target: T2, CasX variant 119 (synthetic construct); experiment: cleavage_in_vitro
T2 chain: T1 chain with L399F, K404L, V658I, R856Y

B1: gRNA scaffold 174 + spacer 7.37 ; 7.37 TTC PAM target (ssRNA ; dsDNA)
RNA: ACUGGCGCUUUUAUCUGAUUACUUUGAGAGCCAUCACCAGCGACUAUGUCGUAGUGGGUAAAGCUCCCUCUUCGGAGGGAGCAUCAAAGGGGCCGAGAUGUCUCGCUCC
DNA 1: TGAAGCTGACAGCATTCGGGCCGAGATGTCTCGCTCCGTGGCCTTAGCTGTGCTCGCGCT
DNA 2: AGCGCGAGCACAGCTAAGGCCACGGAGCGAGACATCTCGGCCCGAATGCTGTCAGCTTCA
- activity (CasX variant 438): 4.94 min⁻¹
- activity (CasX variant 119): 8.33 min⁻¹
